Results on 22 sequences are retold here after the DeepSol protein solubility set.

The data set can be described thus: soluble on expression in E. coli; label from the status in PepcDB or PDB records.
Turning to “HHHHHHDITFRNIRFRYKPDSPVILDNINLSIKQGEVIGIVGRSGSGKSTLTKLIQRFYIPENGQVLIDGHDLALADPNWLRRQVGVVLQDNVLLNRSIIDNISLANPGMSVEKVIYAAKLAGAHDFISELREGYNTIVGEQGAGLSGGQRQRIAIARALVNNPKILIFDEATSALDYESEHVIMRNMHKICKGRTVIIIAHRLSTVKNADRIIVMEKGKIVEQGKHKELLSEPESLYSYLYQLQSD”, the “soluble on expression in E. coli” value is “soluble”.

As to “MQTNLLSRPTSAKSTSMSDKINHPQLCQWLESVAISRDKQAFTHLFQFFAPKILRIARGKFPNEAQANEVVQDTMSNVWRKAHLYNQDKGAATTWVYTVMRNVTFDMLRKIQGNKEDNLSDDIWPIAESMSIENEIFDDHLEHANLLSVIEELPQAQQDVVKGFYFREMSQEQLAVHLHLPLGTVKSRLRLALGKLKVQLGEKHD”, the “soluble on expression in E. coli” value is reported as “not soluble”. Take “MSLSQTTNIKEQTDTGLAPPAPAITTNSAAIEEQANSSIRKLYHTLNTMPNTSMADRISQISAYFKGTKYILGSLGEGPNARYDQFPRYRVDGFDCDTYVNTVLSLALANSLESFQECLKHTRYKNGKRSYINRNHFTSIDWNNYNQKRGLLKDITFSIRNEKKQPVALYANALINKPQWYNHKTIDTIRLQKQDKNEQEKRLVELKAKGKTLETSLSNVPYIPFTALFSENKPNLHLFSQIPNGAVIEIIRPNWDLRQQIGTELDISHLGFAIWINNELFFRQASSQYGKVVDVSLIDYLDKARSSPTIKGINIQVVLPEKPVSNGCQLFDIREGHHHHHH”: the “soluble on expression in E. coli” value is “soluble”. “MAAFEAHDYALAERQAQALLAHPATASGARFMLGYVYAFMDRFDEARASFQALQQQAQKSGDHTAEHRALHQVGMVERMAGNWDAARRCFLEERELLASLPEDPLAASANAYEVATVALHFGDLAGARQEYEKSLVYAQQADDQVAIACAFRGLGDLAQQEKNLLEAQQHWLRARDIFAELEDSEAVNELMTRLNGLEHHHHHH”: the “soluble on expression in E. coli” value is on record as “not soluble”. As to “MIRMPLATASLLAIAISLAGCGEGKDKAAAPAPAAAPAAPAAAPAAPAPAPAAAAQTDDAAAKAVVANYANMVSAVFDDAQGAAKKLSTAVDAFLAKPNDETLKAARDAWVAARVPYMQSEVFRFGNTIIDDWEGQVNAWPLDEGLIDYVAKDYQHALGNPGATANIIANTEIQVGEDKVDVKEITSEKLASLNELGGSEANVATGYHAIEFLLWGQDLNGTGPGAGARPASDYLEGAGATGGHNDRRRTYLKAVTDLLVSDLEEMAGNWKAGVADNYRATLEAESGESGLRKMLFGMGSLSLGELAGERMKVALEANSSEDEHDCFSDNTHNSHFYNGKGIRNVYLGEYTRTDGSKVSGPSLSSLVAKVDPATDATLRADLDDTQAKLQAIVDHANKGEHFDQLIGAGNTAGNQVVRDAIAALVKQTGAIEQAAGKLGITDLNPDNADHEF”, the “soluble on expression in E. coli” value is listed as “soluble”. “MAFLGLFSLLVLQSMATGATFPEEAIADLSVNMYNRLRATGEDENILFSPLSIALAMGMMELGAQGSTQEEIRHSMGYDSLKNGEEFSFLKEFSNMVTAKESQYVMKIANSLFVQNGFHVNEEFLQMMKKYFNAAVNHVDFSQNVAVANYINKWVENNTNNLVKDLVSPRDFDAATYLALINAVYFKGNWKSQFRPENTRTFSFTKDDESEVQIPMMYQQGEFYYGEFSDGSNEAGGIYQVLEIPYEGDEISMMLVLSRQEVPLATLEPLVKAQLVEEWANSVKKQKVEVYLPRFTVEQEIDLKDVLKALGITEIFIKDANLTGLYDNKEIFLSKAIHKSFLEVNEEGSEAAAVSGMIAISRMAVLYPQVIVDHPFFFLIRNRRTGTILFMGRVMHPETMNTSGHDFEEL”: the “soluble on expression in E. coli” value is listed as “soluble”. Take “MSFQEIPIIDLQEAFDPATRSKFLEEVRDAIINVGFLLLKNYESLGPTEEDLQSIKQQAIEFFALPAKEKLQCEMLNSPHFLGYTRLANEITASHTDWREQIDLATELPAPKEGEPLYKNIEGPNLWPNPEVIPKFRPTIERFIEKMTALSNVFKDLVAESIGVDPKALNRYFKENQQCKMKLIAYPDVSELDGTKSAALDDTPETNQGVEPHRDSDLITYIYQATEHQNSLQVQNFQGHWITVPNIPGHLVVNNGQTLQAITGGVAKATIHRVLVPEKGTGTRISIPFFQTIDLDSSKGVVDNLPQEVIDLKNERDKKIKDWGVDTGFQFEPDVSKEPIGHAVFRNRIKSHQDVAKKWYPDVLKSVLQEYTH”: the “soluble on expression in E. coli” value is recorded as “soluble”.

Turning to “MHNLVPAPKQTQSVLIKNATVHTVIQGVLTNTDVLIENGKISALGPQLSTNTTASTQVVDASGKHLYPGLIALDTSLGLEHHHHHH”, the “soluble on expression in E. coli” value is “not soluble”. Regarding “MQNRLTIKDIARLSGVGKSTVSRVLNNESGVSQLTRERVEAVMNQHGFSPSRSARAMRGQSDKVVAIIVTRLDSLSENLAVQTMLPAFYEQGYDPIMMESQFSPQLVAEHLGVLKRRNIDGVVLFGFTGITEEMLAHWQSSLVLLARDAKGFASVCYDDEGAIKILMQRLYDQGHRNISYLGVPHSDVTTGKRRHEAYLAFCKAHKLHPVAALPGLAMKQGYENVAKVITPETTALLCATDTLALGASKYLQEQRIDTLQLASVGNTPLMKFLHPEIVTVDPGYAEAGRQAACQLIAQVTGRSEPQQIIIPATLS”, the “soluble on expression in E. coli” value is on record as “soluble”.

Take “MSLDDYGIPQVAEINEQISVVWKDYGISPAPEAQDFEWVRRVYLDIIGRVPSVAELEEFQRDRGKDRKKNLVEKLLNDSAFTEEYARNWTTIWTNVLIGRNGGLDNNSQVSREGMQKYLRDSFARNKPYDQLVREVITSEGANAPGMPNFNGAVNFYMDKLAEDGVQATAKTAQIFLGVQVQCTQCHNHPFNSWKQDKFWELNAFFRQTRAQRDRGMEANEGHHHHHH”: the “soluble on expression in E. coli” value is “not soluble”. In the case of “MVYVAVLANIAGNLPALTAALSRIEEMREEGYEIEKYYILGNIVGLFPYPKEVIEVIKDLTKKENVKIIRGKYDQIIAMSDPHATDPGYIDKLELPGHVKKALKFTWEKLGHEGREYLRDLPIYLVDKIGGNEVFGVYGSPINPFDGEVLAEQPTSYYEAIMRPVKDYEMLIVASPMYPVDAMTRYGRVVCPGSVGFPPGKEHKATFALVDVDTLKPKFIEVEYDKKIIEERIRAEGLPEEIIKILYHGGRP”, the “soluble on expression in E. coli” value was “soluble”. For “MIRLTRLDGDVFFVNPDLIEAIEETPDTHIVLSNGRRYLVIEKTDAIVARIISFKSSVMKRALGGHGRKYLRRKMEGSYLPRCPLKPGHNTDLEHHHHHH”, the “soluble on expression in E. coli” value was “soluble”. To “MITMTEVKGKTANESRVFKTSRVFPTDLNDHNTLFGGKILSEMDMVASISASRHSRKECVTASMDWVDFLHPVRSSDCVSYESFVIWTGRTSMEVFVKVVSEYLISGEKRIAATSFVTFVALSKENNPVPVPRVIPDTEEEKESHRIAVLRAEQRHIRKAESKKVATLLTF” belongs “soluble”; to “MGHHHHHHSHMDRWSAGTLENSILNAYLHTIRGSQHFLYIENQFFISCSDGRTVLNKVGDEIVDRILKAHKQGWCYRVYVLLPLLPGFEGDISTGGGNSIQAILHFTYRTLCRGEYSILHRLKAAMGTAWRDYISICGLRTHGE”, “soluble”; to “MSLADYLTVTHLTKYLKLKFDRDPYLERVYLTGQVSNFRKRPTHQYFSLKDESAVIQATMWAGVYKKLGFDLEEGMKINVIGRVQLYEPSGSYSIVIEKAEPDGIGALALQFEQLKKKLTAEGYFEQKHKQPLPQFVSKIGVITSPSGAVIRDIITTVSRRFPGVEILLFPTKVQGDGAAQEVVANIRRANQREDLDLLIVGRGGGSIEDLWAFNEEIVVQAIFESQLPVISSVGHETDTTLADFVADRRAATPTAAAELATPITKTDLMSWIVERQNRSYQACLRRIKQRQEWVDKLSQSVIFRQPERLYDAYLQKIDRLSMTLMNTMKDRLSSAKENKVQLDHALANSQLQTKIERYQDRVATAKRLLMANMASQYDSQLARFEKAQDALLSLDASRIIARGYAMIEKNQALVASVSQITKGDQLTIKMRDGQLDVEVKDVKNENIEGHHHHHH”, “not soluble”. With “MSLDDFCNIPKGKEVVFGFNVPQSGAYADEGMDELKAYQLAVKHLNGEGDGGMLKTMKPLALKGNGVLGKKVTFVSGDTQTKADQARATAKRMIEKDGAIMITGGSSSAEAVAVQSLCQDVGVIFMAGLTHSNDTTGKDKRAYGFRHFFNAYMSGVALGPVLAEAYGKDRAAYHLTADYTWGWTQEESMKDATEKQGWKTVKAVRTPLGAADFSQYITPVLNSGADVLILNHYGKDMINSLTQAVQFGLRDKMANGKKFEIVVPLFSELMAQGAGDAIKGIYGTANWDWKLEDAATSAFTKSFGAAYGTPPSQAAQTCYVQAILYADAVERAGTFNPSKVIAALEGFEFDGLGNGKTLYRAADHQCFKDVLVVQGKEKPKEGHHHHHH”, the “soluble on expression in E. coli” value is “not soluble”. With “MQLSHRPAETGDLETVAGFPQDRDELFYCYPKAIWPFSVAQLAAAIAERRGSTVAVHDGQVLGFANFYQWQHGDFCALGNMMVAPAARGLGVARYLIGVMENLAREQYKARLMKISCFNANAAGLLLYTQLGYQPRAIAERHDPDGRRVALIQMDKPLEP”, the “soluble on expression in E. coli” value is recorded as “soluble”. Turning to “MEQPFDLAAELAKQPHLLEIAGNLLMKSGPEDYIGAVLCLRGTLYFKKAHTPLVRESLCQCFDEFERLAEPHLTWLWREEPAQGKPLTAYRDTQPLREMMGAMDEDDHLSFCYTSGKKSRDAGAWLFDIYGKRSWQAKMGHDLSVLEFSVPLLYQERQPLDFLQLFIDFARRLEPEQGYAGHAYNLSPTSWDNDEPSEAFMAARMPGLDVGTACLLANTPEFKPTRIKTVSWLTLLNNERLALAGGLDALRAQLPSSHFAFYRYGDGVVIQAGAYPYIAGDAEDSRPAPYVLLNHALKGIRYETIGSLHGGSHDGELRLVGWAADQWLKRLDVEDSEIPRWCDKLLSAEPYLDATNTLPERL”, the “soluble on expression in E. coli” value is on record as “not soluble”. On to “MKGDRLKANVLAVRLIPNVDSDMAKELGLPNEHRSIGILTADCDDVTYTALDEATKKAVVDVAYGKSFYGGAANANTKLAGEVIGILSGPTPAEVKSGLAAAVDFIENEAAFISANDDDSIAYFAHCISRTGTYLSKTAGIPEGESLAYLIAPPLEAMYALDVALKAADVRLVAFYGPPSETNFGGGLLTGSQSACKAACDAFAEAVKFVADNPLNY”, for which the “soluble on expression in E. coli” value is “soluble”. Turning to “MLMEPQFLRLVSHGANVLDPLSRIEPAAVGMMAGALQKGLAETFTPEAMQDPPRVGLAGFFKQLSDPEVQKALGVLFLFLKALGKAFGHMNEERKTLEAMMAKMMPKK”, the “soluble on expression in E. coli” value is “soluble”. Consider “MNTLSSLLLALQQADSFFPGGAVAWSWGLETLVADGRLGAGERVTARRRQRAVRLDRSAAVRGFVEGQLRHRWHSFDRVFLLAAWNAADDVSALTNLDAQIEALTLAKELRQGSRRVGQALLGVHVALGTPGAAAYQQQVRAGNTPGHLPVLQGLLWNRLGMHREHCQLAAAHGLCTGLVSAAVRLGVMGHIDAQRVLTDIQPLITELLALEPPEPEDACGFTPMAEIAVMRHETQDLRLFANLEHHHHHH”, for which the “soluble on expression in E. coli” value was “soluble”. Regarding “MKSLQIYLFLFLSVFALGACIQNDIPYPYIKGEITAFEVEGQTGDAEINKNSRTIVVEVGDEVDIEELRITRFVVNEEATYSIDEQYCVSPNKFPSAGFSALADLPAGADTRVDFSKTVPVLLRTYQDYQWMITVKQTIERVVEVENQALPAIIDDKNHTVLVYVSQKQDLSAVKITKMILGGSKATITPDPSTVTNFRRPQEFVVNRFDKEELWTVDVVRTTSTGTTGSADVWATRATLNGGMKQGTTPRVEYRKKSEDTWTVVPETDVKLESGTTFSTTLTGLQDGTDYVWRVVVEEVPSTESGFTTEKIQEIPNLNFDTWSQNPTGTFKKSWYPNADGSNSFWATGNDGVTSSLAGSRDSSTRPEEKSVVNGKAAYMVTLGSVPLVGVAAGNLFIGDYKTNAQSPKDSPKFGRSFTGARPTGLKGWYKYTSKPVDYVGNPDNLKNDECHIYLRLWDDKDNEIGYGEFIGKETVTQYTQFRFDVTYTNKTAKPAKITIVATSSHYGGDFTGMKVTGSVGVGSELWVDEFELLYELEHHHHHH”, the “soluble on expression in E. coli” value is recorded as “soluble”.
